The target in this experiment is Myc-tagged Emi2-C RL^+ mutant (only the RL motif intact; D-box and ZBR mutated) (Xenopus) (UniProt Q8AXF4). Kind of experiment: co-IP.

The values that follow come from PMC2836971.

Substance “Cdc27 (APC/C core subunit), endogenous in Xenopus CSF extracts (natural protein)” registered a percent less strongly associated with Cdc27 than the WT of 50%.
